# From patent publication US20130034559A1 (AstraZeneca / MedImmune, published 2013)
# B1: 2.7A4OPT (antibody, V domains shown)
# VH: EVQLVESGGGLVKPGGSLRLSCAASGFTFSTYSMNWVRQAPGKGLEWVSSISSSGDYIYYADSVKGRFTISRDNAKNSLYLQMNSLRAEDTAVYYCARDLVTSMVAFDYWGQGTLVTVSS
# VL: SYELTQPPSVSVSPGQTARITCSGDALPQKYVFWYQQKSGQAPVLVIYEDSKRPSGIPERFSGSSSGTMATLTISGAQVEDEADYYCYSTDRSGNHRVFGGGTKLTVL
# notes: Germlined variable domains; human IgG1-TM (L234F, L235E, P331S), lambda; also called 2.7A4OPT IgG1-TM
# What was measured:
# [1] = molecular target: T1, human PD-1/Fc protein (R&D Systems, catalog #1086-PD) (human, UniProt Q15116 25-170); assay: ELISA, biotinylated IgG1-TM on coated ECD
# T1 construct: extracellular domain; Bought; not shown: Fc portion
# T1 sequence (Q15116 25-170): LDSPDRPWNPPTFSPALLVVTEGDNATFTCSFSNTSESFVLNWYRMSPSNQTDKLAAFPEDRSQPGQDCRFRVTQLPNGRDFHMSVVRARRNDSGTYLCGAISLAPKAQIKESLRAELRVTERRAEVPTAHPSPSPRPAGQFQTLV
# Protocol: ELISAs were performed to determine the cross-reactivity of the anti-B7-H1 IgG1-TM antibodies for other immune co-modulatory molecules. […] Murine cross reactivity was also investigated by coating the ECD of murine B7-H1 (R&D Systems, 1019-B7). Biotinylated anti-B7-H1 IgG1-TM diluted at 100 nM in PBS containing 3% dried milk powder, were incubated at room temperature for 2 h to allow binding. Bound biotinylated IgGs were detected with europium N1-labelled streptavidin (Perkin Elmer, 1244-360) at 0.2 ug/mL. […] Primary antibodies were incubated at 5 ug/mL in PBS containing 3% dried milk powder for 2 h at room temperature. Detection was carried out by incubating the secondary antibody anti-mouse IgG Peroxidase conjugate (Sigma, A2554) or anti-rat IgG Peroxidase conjugate (Sigma, A5795) diluted 1:5000 in PBS containing 3% dried milk powder for 1 h at room temperature and subsequent addition of TMB (Sigma, T0440). […] Non-specific binding was determined using wells coated with the IgG1 isotype control at 5 ug/mL. Cross reactivities were calculated at a percent of the specific binding to the antigen relative to human B7-H1.
# [2] = molecular target: T2, recombinant monomeric human B7-H1 FlagHis10 extracellular domain (human, UniProt Q9NZQ7 19-238); assay: SPR (BIAcore T100), IgG captured via protein G, monomeric B7-H1 ECD as analyte, 25 °C, 1:1 model
# T2 construct: extracellular domain; also called HIS FLAG tagged human B7-H1; HIS FLAG tagged B7-H1; not shown: FlagHis10 tag
# T2 sequence (Q9NZQ7 19-238): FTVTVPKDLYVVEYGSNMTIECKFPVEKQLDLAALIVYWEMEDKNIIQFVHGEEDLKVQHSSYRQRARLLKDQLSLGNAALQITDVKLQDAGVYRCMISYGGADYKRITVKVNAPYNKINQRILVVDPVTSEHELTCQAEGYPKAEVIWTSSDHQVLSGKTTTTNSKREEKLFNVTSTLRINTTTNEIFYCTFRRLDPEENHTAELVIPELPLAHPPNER
# Protocol: (§1) The binding affinity and kinetic parameters of anti-B7-H1 antibodies in the IgG1-TM format to monomeric human and cynomologus B7-H1 were determined by surface plasmon resonance using a BIAcore T100 instrument (BIAcore, Uppsala, Sweden). In brief, experiments were performed at 25° C. using HBS-EP buffer (10 mM HEPES, 150 mM NaCl, 3 mM EDTA, 0.05% v/v surfactant P20) as running buffer. IgGs were affinity captured on the surface of a CM5 sensor chip (BIAcore) via protein G, which was amine coupled onto the CM5 surface to achieve the density of ˜500 Response Units (RU), according to the manufacturer's instructions (BIAapplications Handbook, BIAcore). Recombinant monomeric human or cynomologus B7-H1 FlagHis₁₀ extracellular domains (ECDs) were used as analytes. […] All measurements were baseline corrected by subtracting the sensorgram obtained with the control (activated-deactivated) flow cell, as well as double referenced with blank (zero analyte concentration) injections. Data were analyzed using the T-100 BIAevaluation software package and fitted to a simple 1:1 Langmuir binding model with local Rₘₐₓ and bulk refractive index set to 0. Data were calculated from at least two independent experiments. Mass transport effects were limited by keeping the level of affinity-captured IgGs below 250 RU.
# B7H1_F19A = molecular target: T3, B7H1_F19A (human, UniProt Q9NZQ7 19-238); assay: HTRF competition: untagged B7-H1 sample against HIS FLAG tagged human B7-H1 for labelled antibody
# T3 construct: range 19-238; also called human B7-H1 extracellular domain mutant F19A
# T3 sequence (Q9NZQ7 19-238 F19A limits assumed): as the sequence (Q9NZQ7 19-238) above, with F1A counted along it
# Protocol: (§2) The HTRF® competition assays measured the binding of anti-B7-H1 antibody to HIS FLAG tagged B7-H1. Titration of non tagged B7-H1 samples, prepared as described above, will compete with HIS FLAG tagged B7-H1 for binding to anti-B7-H1 antibody, leading to a reduction in assay signal. […] 10 μl of B7-H1 sample was added to a 384 well low volume assay plate (Corning 3673). […] Assay plates were incubated for 4 hours at room temperature prior to reading time resolved fluorescence at 620 nm and 665 nm emission wavelengths using an EnVision plate reader (Perkin Elmer).
# B7H1_F19G = molecular target: T4, B7H1_F19G (human, UniProt Q9NZQ7 19-238); assay: as above
# T4 construct: range 19-238; also called human B7-H1 extracellular domain mutant F19G
# T4 sequence (Q9NZQ7 19-238 F19G limits assumed): as the sequence (Q9NZQ7 19-238) above, with F1G counted along it
# Protocol: as §2
# B7H1_F19S = molecular target: T5, B7H1_F19S (human, UniProt Q9NZQ7 19-238); assay: as above
# T5 construct: range 19-238; also called human B7-H1 extracellular domain mutant F19S
# T5 sequence (Q9NZQ7 19-238 F19S limits assumed): as the sequence (Q9NZQ7 19-238) above, with F1S counted along it
# Protocol: as §2
# B7H1_T20A = molecular target: T6, B7H1_T20A (human, UniProt Q9NZQ7 19-238); assay: as above
# T6 construct: range 19-238; also called human B7-H1 extracellular domain mutant T20A
# T6 sequence (Q9NZQ7 19-238 T20A limits assumed): as the sequence (Q9NZQ7 19-238) above, with T2A counted along it
# Protocol: as §2
# B7H1_T20V = molecular target: T7, B7H1_T20V (human, UniProt Q9NZQ7 19-238); assay: as above
# T7 construct: range 19-238; also called human B7-H1 extracellular domain mutant T20V
# T7 sequence (Q9NZQ7 19-238 T20V limits assumed): as the sequence (Q9NZQ7 19-238) above, with T2V counted along it
# Protocol: as §2
# B7H1_T20D = molecular target: T8, B7H1_T20D (human, UniProt Q9NZQ7 19-238); assay: as above
# T8 construct: range 19-238; also called human B7-H1 extracellular domain mutant T20D
# T8 sequence (Q9NZQ7 19-238 T20D limits assumed): as the sequence (Q9NZQ7 19-238) above, with T2D counted along it
# Protocol: as §2
# B7H1_R113Y = molecular target: T9, B7H1_R113Y (human, UniProt Q9NZQ7 19-238); assay: as above
# T9 construct: range 19-238; also called human B7-H1 extracellular domain mutant R113Y
# T9 sequence (Q9NZQ7 19-238 R113Y limits assumed): as the sequence (Q9NZQ7 19-238) above, with R95Y counted along it
# Protocol: as §2
# B7H1_R113L = molecular target: T10, B7H1_R113L (human, UniProt Q9NZQ7 19-238); assay: as above
# T10 construct: range 19-238; also called human B7-H1 extracellular domain mutant R113L
# T10 sequence (Q9NZQ7 19-238 R113L limits assumed): as the sequence (Q9NZQ7 19-238) above, with R95L counted along it
# Protocol: as §2
# B7H1_D122E = molecular target: T11, B7H1_D122E (human, UniProt Q9NZQ7 19-238); assay: as above
# T11 construct: range 19-238; also called B7H1 D122E mutant
# T11 sequence (Q9NZQ7 19-238 D122E limits assumed): as the sequence (Q9NZQ7 19-238) above, with D104E counted along it
# Protocol: as §2
# B7H1_D122N = molecular target: T12, B7H1_D122N (human, UniProt Q9NZQ7 19-238); assay: as above
# T12 construct: range 19-238; also called human B7-H1 extracellular domain mutant D122N
# T12 sequence (Q9NZQ7 19-238 D122N limits assumed): as the sequence (Q9NZQ7 19-238) above, with D104N counted along it
# Protocol: as §2
# [3] = molecular target: T13, recombinant monomeric cynomologus B7-H1 FlagHis10 extracellular domain (cynomologus); assay: SPR (BIAcore T100), IgG captured via protein G, monomeric cynomologus B7-H1 ECD as analyte, 25 °C, 1:1 model
# T13 construct: extracellular domain; also called CYNO B7H1
# Protocol: as §1
binder,measurement,setting,value
B1,binding result,[1],no binding (tested: 100 nM)
same,Kd,[2],1 nM
same,koff,[2],0.0012 s⁻¹
same,kon,[2],1.24e+06 M⁻¹ s⁻¹
same,binding result,B7H1_F19A,no binding
same,binding result,B7H1_F19G,no binding
same,binding result,B7H1_F19S,no binding
same,binding result,B7H1_T20A,no binding
same,binding result,B7H1_T20V,no binding
same,binding result,B7H1_T20D,no binding
same,binding result,B7H1_R113Y,no binding
same,binding result,B7H1_R113L,no binding
same,binding result,B7H1_D122E,no binding
same,binding result,B7H1_D122N,no binding
same,Kd,[3],0.835 nM
same,koff,[3],0.0011 s⁻¹
same,kon,[3],1.31e+06 M⁻¹ s⁻¹
